According to patent US9962427B2, “Treatment of right ventricular dysfunction due to pressure overload” (OTTAWA HOSPITAL RESEARCH INSTITUTE, priority 2016, dated 2018):

B1: hCT1: Recombinant human CT1 protein; 201 amino acid sequence, GenBank Accession Nos AAD12173 and AAA85229 (human) (protein, UniProt Q16619 1-201, looked up)
Cardiotrophin-1: MSRREGSLEDPQTDSSVSLLPHLEAKIRQTHSLAHLLTKYAEQLLQEYVQLQGDPFGLPSFSPPRLPVAGLSAPAPSHAGLPVHERLRLDAAALAALPPLLDAVCRRQAELNPRAPRLLRRLEDAARQARALGAAVEALLAALGAANRGPRAEPPAATASAASATGVFPAKVLGLRVCGLYREWLSRTEGDLGQLLPGGSA

Experiments:
Type in all cases: cell-based
[1] = tested on: primary neonatal cardiomyocytes; assay: Morphometric analysis of stimulated primary neonatal cardiomyocytes (cell area, length:width ratio); conditions: 24 hours stimulation, PE 100 μM; for cell areas increases: versus serum-free control
Protocol: FIGS. 1A and 1B. Morphometric analysis of primary cardiomyocytes stimulated with human Cardiotrophin-1 (hCT1) and/or the hypertrophy agonist Phenylephrine (PE).
Phenylephrine (PE) was used as a pathological adaptive compensation control as it is a known target of the stress-activated G-protein coupled alpha (α)-adrenergic pathway. Primary neonatal cardiomyocytes were stimulated for 24 hours with hCT1 (0.5 nM), PE (100 μM), the combination of hCT1 and PE, or control serum-free (SF) media followed by morphometric analysis (cell area and length:width ratio) (FIG. 1A). […] This CT-1 mediated growth is typical of the cardiomyocyte adaptations that occur during physiologic adaptive compensation with an L:W ratio that is divergent from PE induced growth.

[2] = tested on: primary neonatal cardiomyocytes; assay: In vitro reversion of cardiomyocyte hypertrophy after removal of stimulus; conditions: for myocyte hypertrophy (cell area) after removal of stimulus: 2 day treatment, then 4 days serum-free media (Day 6); for cardiomyocyte cell size after 2 days of stimulation compared to control: PE 100 μM or hCT1 0.5 nM, Day 2
Protocol: FIGS. 2A and 2B. hCT1 induces physiologic adaptive compensation in vitro with reversion to a normal cardiomyocyte phenotype upon removal of hCT1 stimulation.
The morphological effects of CT-1 in an in vitro reversion setting (FIGS. 2A and 2B) were explored. Primary neonatal cardiomyocytes were stimulated for 2 days with phenylephrine (PE, 100 μM) or hCT1 (0.5 nM) followed by removal of the stimulus for 4 days: i.e. replenished with serum-free (SF) media. Cells were imaged at Day 0 and Day 2 of stimulation; and at Day 6 (4 days post-treatment). […] The population frequencies of L:W ratios of cardiomyocytes stimulated as above were examined (FIG. 2B). […] However, upon treatment with CT-1, only ˜20% of cardiomyocytes display a L:W ratio of 1.0 to 2.0 with the remaining cardiomyocytes showing an increased shift between 3.0 and 9.0 indicating eccentric growth. […] These observations indicate that although there is not complete penetrance of the eccentric growth (presumably due to the dosage and timing of CT-1 stimulation used), CT-1 causes an eccentric and reversible cardiomyocyte growth similar to what is seen during RV adaptive compensation, which is distinct from the concentric growth observed with PE which models pathological hypertrophic changes.

Mef2 = Mef2 luciferase reporter in primary neonatal cardiomyocytes; conditions: hCT1 0.5 nM; for Mef2 activation after 24 hrs: PE 100 μM, PAC-1 25 μM
Protocol: (§1) FIGS. 6A, 6B, and 6C. Stimulation with hCT1 causes sustained activation of NF-κB and Stat3 with limited activation of Mef2, as well as limited Nfat activation; the latter two indices are distinct expression patterns from pathologic hypertrophic stimulation. FIG. 6A Primary neonatal cardiomyocytes were transfected with luciferase reporter plasmids (NF-κB or Mef2), as indicators of hypertrophic activity. Luciferase activity was measured after treatments for 24 hrs with: hCT1 (0.5 nM), PE (100 μM), or procaspase 3 activating compound 1, PAC-1 (25 μM) (left). Treatments at early timepoints (30 min, 1 hr, and 3 hr) were also conducted for hCT1 (right). FIG. 6B Primary neonatal cardiomyocytes were transfected with a luciferase reporter plasmid for Stat3. Luciferase activity was measured after treatments for 24 hrs with: hCT1 (0.5 nM), PE (100 μM), or procaspase 3 activating compound 1, PAC-1 (25 μM) (left) and at earlier time points (right). FIG. 6C Primary neonatal cardiomyocytes were infected with a luciferase-based Nfat reporter Adenovirus (Nfat-AdV). Luciferase activity was measured after treatments for 24 hrs with: hCT1 (0.5 nM), PE (100 μM), or procaspase 3 activating compound 1, PAC-1 (25 μM) (left) and at earlier time points (right)
The signaling pathways that CT-1 engages in mediating physiologic adaptive compensatory remodeling were examined. The applicants predicted that cardiomyocyte adaptive remodeling mediated by CT-1 results (in part) from the induction of a specific transcriptional program, which is distinct from that of pathologic hypertrophic response. To address this hypothesis, the applicants tested the activity of two well-known transcription factor families that have been linked to both physiologic and pathologic cardiomyocyte growth, the Mef2 (Kolodziejczyk et al. 1999 Curr Biol. 9, 1203-1206; Kim et al. 2008, J Clin Invest. 118, 124-132.) and the NF-κB family (Gordon et al. 2011, Circ Res. 108, 1122-1132). Primary neonatal cardiomyocytes were transfected with luciferase reporter plasmids (NF-κB and Mef2) to be used as a read out of transcriptional activity. Luciferase activity was determined after treatments for 24 hrs with: hCT1 (0.5 nM), PE (100 μM), or procaspase 3 activating compound 1, PAC-1 (25 μM). […] This pattern of transcription factor activation was distinct from that induced by PE and by the caspase 3 specific activating compound PAC-1.

STAT3 = STAT3 luciferase reporter in cardiomyocytes; conditions: 30 minutes up to 24 hours; hCT1 0.5 nM, PE 100 μM, PAC-1 25 μM
Protocol: as §1
Moreover, it is reasonable to assume that CT-1 may moderate the activity of additional transcription factors, which further contribute to the adaptive compensation phenotype. As such, Applicants decided to test the hypothesis that STAT3 (Signal transducer and activator of transcription 3) dependent transcriptional activity is a specific determinant for CT-1 induced physiologic adaptive compensation. STAT3 phosphorylation and transcriptional activation is a response that is common to the Interleukin-6 cytokine family (of which CT-1 is a member), which is mediated through binding and activation of a JAK/gp130 (Janus kinase/[…]) receptor complex.

primary cardiomyocytes = assay: Microarray gene expression analysis of primary cardiomyocytes (Affymetrix Rat gene 2.0ST array); conditions: 0.5 nM, 24 hours, versus non-stimulated
Protocol: FIGS. 8A and 8B. […] FIG. 8B Microarray analysis of primary cardiomyocytes stimulated with hCT1 (0.5 nM) for 24 hours.
Applicant explored the role of CT-1 as a pro-angiogenic factor in the adaptive hypertrophic response. Physiologic cardiac adaptive compensation is associated with an increase in capillary density, whereas pathologic response is characterized by a decline or no change at all. Importantly, the compensatory vascular growth/angiogenesis that occurs during physiologic adaptive compensation is permissive for the increased workload that accompanies physiologic adaptive compensation. Despite this adaptation, little information exists regarding the mechanisms that match the demand for angiogenesis to the beneficial form of myocardial growth. The rapid in vitro and in vivo adaptive compensation in response to CT-1 supports a hypothesis that the cardiomyocyte itself may act in a paracrine fashion, to signal and promote angiogenesis. To address this conjecture, Applicant examined whether CT-1 treated primary cardiomyocytes produced vascular endothelial growth factor (VEGF), an angiogenic factor known to be produced and secreted by cardiomyocytes. Primary cardiomyocytes were incubated with control serum-free media (Ctrl, SF media) or stimulated with hCT1 (0.5 nM), PE (100 μM), or PAC-1 (25 μM) for 24 hours. […]

Molecule	L:W ratio, in words [1]	cell areas increases ([1]; hCT1 0.5 nM)	myocyte hypertrophy (cell area) after removal of stimulus [2]	cardiomyocyte cell size after 2 days of stimulation compared to control [2]	Mef2 activation after 24 hrs (Mef2)	STAT3 activation (STAT3)	L:W ratio (length to width ratio) ([1]; hCT1 0.5 nM)	L:W ratio population frequency after removing stimulation ([2]; 4 days after removal)	proportion of cardiomyocytes with L:W ratio of 1.0 to 2.0 ([2]; upon treatment (2 days), control ~60%)	Mef2 luciferase activity at 1 hr and 3 hr (Mef2)	VEGF increase (microarray) (primary cardiomyocytes)	angiogenic and endothelial factors (Angpt14, Flt4, Vwa5a) expression (primary cardiomyocytes)
CNC[C@H](O)c1cccc(O)c1 [PE, Phenylephrine]	same or shortened L:W ratio	171%	remained hypertrophied	increase in cardiomyocyte cell size	significant activation of Mef2	only minimal (if any) activation	–	–	–	–	–	–
B1	–	162%	reversion of the myocyte hypertrophy	increase in cardiomyocyte cell size	only NF-κB transcriptional activity was sustained	significant STAT3 activation	172%	reversion of L:W ratio occurs	~20%	significant activation	1.3 fold	robust induction
